Results taken from publication PMC2700392 (The Journal of Cell Biology, 2009).

Target: Nup170p (recombinant, released from GST by thrombin) (S. cerevisiae, UniProt P38181 1-1502)
Test: pull-down

Nup170p (recombinant, released from GST by thrombin), sequence (P38181 whole entry): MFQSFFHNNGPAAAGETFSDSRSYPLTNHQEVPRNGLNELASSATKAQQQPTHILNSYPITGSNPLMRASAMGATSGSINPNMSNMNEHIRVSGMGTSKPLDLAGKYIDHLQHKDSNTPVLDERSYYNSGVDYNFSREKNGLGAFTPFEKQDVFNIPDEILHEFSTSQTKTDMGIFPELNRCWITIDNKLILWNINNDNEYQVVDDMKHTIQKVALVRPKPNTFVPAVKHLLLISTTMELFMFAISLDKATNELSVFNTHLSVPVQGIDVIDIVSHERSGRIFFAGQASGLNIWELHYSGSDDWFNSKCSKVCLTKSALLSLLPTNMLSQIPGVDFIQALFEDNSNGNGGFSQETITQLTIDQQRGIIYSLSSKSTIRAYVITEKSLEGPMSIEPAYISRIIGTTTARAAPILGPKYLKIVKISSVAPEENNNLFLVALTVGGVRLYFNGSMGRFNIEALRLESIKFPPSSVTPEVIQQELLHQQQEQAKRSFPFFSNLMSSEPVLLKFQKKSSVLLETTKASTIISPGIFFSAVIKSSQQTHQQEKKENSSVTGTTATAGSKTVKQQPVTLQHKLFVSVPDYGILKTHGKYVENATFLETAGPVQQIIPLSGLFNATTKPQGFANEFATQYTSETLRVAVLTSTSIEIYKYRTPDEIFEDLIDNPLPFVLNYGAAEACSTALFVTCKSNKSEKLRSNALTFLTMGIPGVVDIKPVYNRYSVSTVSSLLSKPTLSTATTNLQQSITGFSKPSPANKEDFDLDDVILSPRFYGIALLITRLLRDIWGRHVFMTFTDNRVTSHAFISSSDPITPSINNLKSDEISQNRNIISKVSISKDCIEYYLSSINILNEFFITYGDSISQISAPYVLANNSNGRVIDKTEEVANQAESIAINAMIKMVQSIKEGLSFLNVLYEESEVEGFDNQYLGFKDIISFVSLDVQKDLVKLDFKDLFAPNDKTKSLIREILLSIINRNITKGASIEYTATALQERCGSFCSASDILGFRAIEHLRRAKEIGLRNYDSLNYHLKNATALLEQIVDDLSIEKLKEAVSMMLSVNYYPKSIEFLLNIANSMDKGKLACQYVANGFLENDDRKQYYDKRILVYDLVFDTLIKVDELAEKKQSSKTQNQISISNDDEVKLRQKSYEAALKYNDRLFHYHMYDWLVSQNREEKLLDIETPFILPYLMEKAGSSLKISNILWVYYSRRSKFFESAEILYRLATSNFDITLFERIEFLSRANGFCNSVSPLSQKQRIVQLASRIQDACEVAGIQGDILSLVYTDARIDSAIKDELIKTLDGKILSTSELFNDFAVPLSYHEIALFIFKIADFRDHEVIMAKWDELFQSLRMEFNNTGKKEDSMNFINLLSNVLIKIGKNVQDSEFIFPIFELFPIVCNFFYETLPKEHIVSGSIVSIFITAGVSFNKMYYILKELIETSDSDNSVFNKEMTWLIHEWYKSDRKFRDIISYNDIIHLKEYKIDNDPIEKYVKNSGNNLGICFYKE

binding result: binds
B1: GST-Pom152p^1-111 (domain or fragment, S. cerevisiae, UniProt P39685 1-111, looked up)
chain: MEHRYNVFNDTPRGNHWMGSSVSGSPRPSYSSRPNVNTTRRFQYSDDEPAEKIRPLRSRSFKSTESNISDEKSRISERDSKDRYINGDKKVDIYSLPLISTDVLEISKQRT
